Experimental data published in patent publication US20170183645A1.
“And” between values parts separate entries of the source, which are not always exact repeats. Equal entries are not always repeated.

Experiments:
[1] = target: H1N1 influenza neuraminidase (influenza H1N1 (strain not stated))
[2] = target: H3N2 influenza neuraminidase (influenza H3N2 (strain not stated))
[3] = target: influenza H5N1 neuraminidase (H5N1 A/Thailand/1(KAN-1)/2004) (influenza A virus H5N1 A/Thailand/1(KAN-1)/2004)

B1: Anti-Flu neuraminidase VHH (clone Flu 27-8) (VHH)
VHH: QVQLVESGGRLVQAGGSLRVACVASGGTFSSYVMGWFRQAPGKERESVASITRDGDTTFYADSVKGRFTIARDNAKNTVYLQMNSLQPEDTGVYYCAAAVQYGTLWSRQYDYWGQGTQVTVSS
[1]
  ELISA reactivity compared to control protein (BSA): 1.89
[2]
  ELISA reactivity compared to control protein (BSA): 1.08
[3]
  ELISA reactivity compared to control protein (BSA): 2.48

B2: Bivalent homodimer of humanized anti-Flu neuraminidase VHH (clone Flu h27-8GL.h27-8GL) (VHH)
chain: QVQLVESGGGLVQPGGSLRLSCAASGGTFSSYVMGWFRQAPGKGLESVASITRDGDTTFYADSVKGRFTISRDNSKNTLYLQMNSLRAEDTAVYYCAAAVQYGTLWSRQYDYWGQGTLVTVSSAHHSEDPSSKAPKAPMAQVQLVESGGGLVQPGGSLRLSCAASGGTFSSYVMGWFRQAPGKGLESVASITRDGDTTFYADSVKGRFTISRDNSKNTLYLQMNSLRAEDTAVYYCAAAVQYGTLWSRQYDYWGQGTLVTVSS
[1]
  ELISA reactivity compared to control protein (BSA): 2.44 and 1.31
[2]
  ELISA reactivity compared to control protein (BSA): 1.67 and 1.13
[3]
  ELISA reactivity compared to control protein (BSA): 3.73 and 2.15

B3: humanized VHH h27-8GL (monovalent) (VHH)
VHH: QVQLVESGGGLVQPGGSLRLSCAASGGTFSSYVMGWFRQAPGKGLESVASITRDGDTTFYADSVKGRFTISRDNSKNTLYLQMNSLRAEDTAVYYCAAAVQYGTLWSRQYDYWGQGTLVTVSS
[1]
  ELISA reactivity compared to control protein (BSA): 1.62 and 1.21
[2]
  ELISA reactivity compared to control protein (BSA): 1.34 and 1.09
[3]
  ELISA reactivity compared to control protein (BSA): 2.27 and 1.78
